Data set [1] concerns the target T1, Lhp1 (yeast La protein) (Saccharomyces cerevisiae) (UniProt P33399).
T1 sequence: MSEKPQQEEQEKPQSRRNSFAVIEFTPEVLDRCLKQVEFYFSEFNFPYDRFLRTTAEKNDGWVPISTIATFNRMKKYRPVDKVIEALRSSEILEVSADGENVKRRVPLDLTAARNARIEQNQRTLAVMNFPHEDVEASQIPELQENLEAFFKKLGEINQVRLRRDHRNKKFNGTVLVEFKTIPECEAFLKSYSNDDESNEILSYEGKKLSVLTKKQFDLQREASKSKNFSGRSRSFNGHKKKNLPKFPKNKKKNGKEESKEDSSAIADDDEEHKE
Description: EMSA. The note with it: Bmax 75%, 2',3'-cis-diol end, EMSA: 5 nM Cy3-U6, 100 mM KCl, 20% sucrose, 20 mM bis-tris/10 mM HCl, 1 mM EDTA, 1 mM TCEP, 0.01% Triton X-100, 0.1 mg/mL tRNA, 0.01 mg/mL heparin. A general note: In EMSA bound probe runs differently from free probe, usually more slowly.

Data set [2] addresses T2, Lsm2-8 complex (Saccharomyces cerevisiae) (UniProt P38203+P57743+P40070+P40089+Q06406+P53905+P47093).
T2 sequence 1: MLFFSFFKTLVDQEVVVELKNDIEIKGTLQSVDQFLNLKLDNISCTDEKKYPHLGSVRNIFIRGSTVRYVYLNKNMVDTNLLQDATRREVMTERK
T2 sequence 2: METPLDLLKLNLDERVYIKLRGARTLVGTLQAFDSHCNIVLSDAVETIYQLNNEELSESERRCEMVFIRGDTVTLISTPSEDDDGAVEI
T2 sequence 3: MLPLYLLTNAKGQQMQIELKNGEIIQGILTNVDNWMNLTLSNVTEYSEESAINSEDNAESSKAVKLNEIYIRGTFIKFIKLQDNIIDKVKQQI
T2 sequence 4: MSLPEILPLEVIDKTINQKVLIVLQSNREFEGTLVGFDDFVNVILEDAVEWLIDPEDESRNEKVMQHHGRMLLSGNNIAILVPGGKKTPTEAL
T2 sequence 5: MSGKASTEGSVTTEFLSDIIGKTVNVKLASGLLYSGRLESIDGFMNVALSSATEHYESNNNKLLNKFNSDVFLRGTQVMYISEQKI
T2 sequence 6: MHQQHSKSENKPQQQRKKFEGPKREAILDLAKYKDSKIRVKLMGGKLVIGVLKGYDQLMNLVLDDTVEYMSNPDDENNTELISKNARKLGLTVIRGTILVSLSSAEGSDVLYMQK
T2 sequence 7: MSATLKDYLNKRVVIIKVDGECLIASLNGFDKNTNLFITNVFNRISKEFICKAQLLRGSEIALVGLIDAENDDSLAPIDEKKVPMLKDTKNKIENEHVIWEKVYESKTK
Description: EMSA. Conditions: Bmax 100%, EMSA: 5 nM Cy3-U6, 100 mM KCl, 20% sucrose, 20 mM bis-tris/10 mM HCl, 1 mM EDTA, 1 mM TCEP, 0.01% Triton X-100, 0.1 mg/mL tRNA, 0.01 mg/mL heparin.

A word on the Kd: it is the equilibrium constant for the complex coming apart.

As for U6 1-112 3'OH, the equilibrium dissociation constant (Kd) stood at 18 nM in data set [1] and 210 nM in data set [2] (2',3'-cis-diol end).
Turning to U6 1-112+1U 3'OH, the Kd in data set [1] turned out to be 12 nM; in data set [2] (2',3'-cis-diol end), 30 nM.
For U6 1-112+1U>p, the Kd in data set [2] (2',3'-cyclic phosphate) was found to be 70 nM.

Source of the values: paper PMC5591277.
